{"source": "patent EP0621339B1", "about": "(TAKARA SHUZO CO. LTD., dated 2001)", "molecular_target": "HA molecule (haemagglutinin) of A/Okuda/57 (H2N2) (influenza A virus, H2N2 subtype, strain A/Okuda/57)", "experiment": "cell-based or functional assay", "data": [{"substance": "monoclonal antibody C179", "values": [{"measurement": "HI (hemagglutination inhibition titer) (fold dilution of the ascites fluid)", "value": "< 32"}]}]}
